Patent publication US20130123347, “FRACTALKINE BINDING POLYNUCLEOTIDES AND METHODS OF USE” (published 2013)

B1: 5',3' 10T FKN-S2 Aptamer (ssDNA)
DNA: TTTTTTTTTTGGGGTGGGTGGGGGGCACGTGTGGGGGCGGCCAGGGTGCTTTTTTTTTTT

Molecular target: CCL8 (UniProt P80075 P80075:24-99)
Assay: filter; 0.2 nM protein; PBS pH 7.4, room temp
Settings: tags: PeproTech 300-15; label: 5' 32P; parallel G-quartet and B-form features by CD
Protocol: (§1) FKN-S2 was labeled with γ-³²P ATP using a T4 polynucleotide kinase as described in the FKN-S2 Aptamer Homologous Competitive Binding Assay section. Unlabeled FKN-S2 aptamer and 10⁶ counts per minute of radiolabeled FKN-S2 aptamer were mixed in binding buffer (PBS with 50 μg/mL BSA and 2.5 μg/mL Poly (dA:dT); pH 7.4) and the aptamer was denatured at 95° C. for 5 minutes followed by snap cooling in ice water for 5 minutes. The aptamer was then serial diluted in binding buffer and the dilutions added to full length fractalkine, heat-denatured fractalkine and chemokines CCL8 (PeproTech Catalog Number 300-15) and CXCL16 (PeproTech Catalog Number 300-55). All proteins were at a concentration of 0.2 nM. Fractalkine was denatured by heating to 95° C. for 10 minutes followed by incubation on ice until use. The aptamer and protein were incubated for 1 hour at room temperature. Bound aptamer was collected by filtering the samples thorough at nitrocellulose membrane and signal captured with a phosphor film and imaged. The background was measured from wells containing an identical concentration of BSA without the protein. Binding was quantified using ImageJ. […] The binding that was seen may be due to incomplete denaturing or refolding of fractalkine during the experiment.

Sequence of CCL8 (P80075 24-99, one chain of several): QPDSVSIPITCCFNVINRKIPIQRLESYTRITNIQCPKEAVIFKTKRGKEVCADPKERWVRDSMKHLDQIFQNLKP

GGGGTGGGTGGGGGGCACGTGTGGGGGCGGCCAGGGTGCT (ssDNA) [FKN-S2]: no binding.

Molecular target: T1, CXCL16 (UniProt Q9H2A7 Q9H2A7:30-118)
T1 sequence: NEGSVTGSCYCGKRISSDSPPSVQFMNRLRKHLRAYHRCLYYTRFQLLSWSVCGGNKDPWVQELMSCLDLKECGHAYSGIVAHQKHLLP
Assay: filter; 0.2 nM protein; PBS pH 7.4, room temp
Settings: tags: PeproTech 300-55; label: 5' 32P; parallel G-quartet and B-form features by CD
Protocol: as §1

GGGGTGGGTGGGGGGCACGTGTGGGGGCGGCCAGGGTGCT (ssDNA) [FKN-S2]: no binding.

Molecular target: T2, fractalkine (CX3CL1) (Homo sapiens, UniProt P78423 P78423:25-339)
T2 sequence (P78423 25-339, one chain of several): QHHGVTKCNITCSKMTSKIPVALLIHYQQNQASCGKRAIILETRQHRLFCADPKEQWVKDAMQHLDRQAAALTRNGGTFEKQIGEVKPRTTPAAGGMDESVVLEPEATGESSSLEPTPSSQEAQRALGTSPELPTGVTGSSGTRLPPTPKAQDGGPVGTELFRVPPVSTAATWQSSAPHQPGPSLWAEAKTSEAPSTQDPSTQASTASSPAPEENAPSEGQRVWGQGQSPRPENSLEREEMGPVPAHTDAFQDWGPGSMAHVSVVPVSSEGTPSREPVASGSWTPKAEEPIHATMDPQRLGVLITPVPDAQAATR
Assay: filter; homologous competition; 25 pM FKN, PBS pH 7.4, poly dA:dT, BSA, room temp
Settings: tags: C-terminal polyhistidine; chemokine domain + mucin-like stalk; R&D Systems 365-FR-025; label: 5' 32P; parallel G-quartet and B-form features by CD
Protocol: The dissociation constant of FKN-S2 for fractalkine was determined using a radioactive homologous competition filter binding assay. Dilutions of unlabeled FKN-S2 aptamer were mixed with a constant concentration of ³²P ATP labeled FKN-S2. The dilutions were then incubated with 25 pM fractalkine for 1 hour at room temperature. […] Bound aptamer was collected by filtration through a nitrocellulose membrane and the dissociation constant determined by non-linear regression analysis.
All binding experiments occurred in binding buffer composed of PBS with 0.5 μg/mL poly dA:dT and 50 μg/mL bovine serum albumin (BSA), pH 7.4. Unlabeled full length FKN-S2 aptamer was diluted in binding buffer and a constant concentration of radiolabeled full length FKN-S2 aptamer added to each dilution. Full length fractalkine or an equivalent concentration of BSA was diluted in binding buffer to 50 pM. Aptamer and fractalkine/BSA was incubated for 1 hour at room temperature. Following incubation, samples were filtered through a nitrocellulose membrane using a bio-rad dot blot apparatus. Each well was washed 3 times with 200 μL of PBS to remove unbound aptamer. The membrane was dried and exposed to a storage phosphor screen overnight and imaged (Packard Cyclone). Binding was quantified using ImageJ and the Dot Blot Analyzer plug-in. The data was fit to the following equation

For GGGGTGGGTGGGGGGCACGTGTGGGGGCGGCCAGGGTGCT (ssDNA) [FKN-S2], the Kd was 3.4 nM.

Molecular target: T2, fractalkine (CX3CL1)
Assay: filter; 1-10 nM aptamer; PBS pH 7.4, BSA, poly dA:dT
Settings: tags: C-terminal polyhistidine; chemokine domain + mucin-like stalk; R&D Systems 365-FR-025; label: 32P
Protocol: Anti-fractalkine Antibody Blocking Assay. Unlabeled FKN-S2 and scrambled FKN-S2 aptamer (sequence 5′-[…] […], SEQ ID NO:7) were diluted to 10 nM in binding buffer (PBS with 50 μg/mL BSA and 2.5 μg/mL Poly (dA:dT); pH 7.4). Approximately 75,000 cpm/well of radio-labeled aptamer was added and the samples were diluted to 5 and 1 nM. Each dilution was heat denatured and snap cooled. Full length fractalkine was diluted to 0.25 nM and approximately 100 nM of anti-chemokine domain antibody (FKN Ab) was added and allowed to bind for 30 minutes at room temperature. The aptamer was added to the protein solution and incubated at room temperature for 30 minutes. Bound aptamer was collected by filtering the samples thorough at nitrocellulose membrane and signal captured with a phosphor film and imaged. The background binding signal was removed from the FKN and FKN Ab+FKN samples by subtracting the signal from a well containing an identical concentration of BSA without FKN or FKN Ab. Binding was quantified using ImageJ.

GTTGGGATGAGGGTGGGCGGGCGCGGCGGCTGGGGGTCGG (ssDNA) [scrambled FKN-S2]: no binding.

Molecular target: T2, fractalkine (CX3CL1)
Assay: competition; vs radiolabeled FKN-S2
Settings: tags: C-terminal polyhistidine; chemokine domain + mucin-like stalk; R&D Systems 365-FR-025
Protocol: FKN-S2 contains 40 nucleotides and we investigated if truncation of the aptamer would result in sequences with similar affinity to fractalkine but with fewer nucleotides. Three truncated versions of the FKN-S2 aptamer were synthesized with five nucleotides removed from the 5′ end (FKN-S2a), five from the 3′ end (FKN-S2b) and five from each end (FKN-S2c). Additionally, a random 40-mer (5′-[…] (SEQ ID NO:4)) was used as a control. The relative affinities of the truncated aptamers were tested using a heterogeneous competition assay with radiolabeled full length FKN-S2 (FIG. 4). IC₅₀ values (the concentration of 50% reduction in binding) were determined by non-linear regression fitting of the data to the binding equation given in herein and the values are shown in Table 1.
Truncated FKN-S2 Aptamer Competitive Binding Assay. […] 1 nM of unlabeled FKN-S2 and 5,000 cpm/μL (counts per minute/μL) of radio-labeled full length FKN-S2 were heat denatured and snap cooled before addition to either fractalkine or a BSA control at a concentration of 0.1 nM and incubated for 1 hour at room temperature. The solutions were filtered through a nitrocellulose membrane and exposed to a storage phosphor film overnight and imaged. The binding was quantified using ImageJ and the Dot Blot Analyzer plug-in. Data was fit using the non-linear regression program Origin 8 to the equation

Compared with GGGTGGGGGGCACGTGTGGGGGCGGCCAGG (ssDNA) [FKN-S2c], GGGGTGGGTGGGGGGCACGTGTGGGGGCGGCCAGG (ssDNA) [FKN-S2b] is lower in IC50: over 100000 nM for the first, 5410 nM for the second.

Work on CTATCGGCGACATGAACTTTGGCAAGGGCATCTGGTCCAT (ssDNA) [random 40-mer] yielded an IC50 of over 100000 nM.

Molecular target: T2, fractalkine (CX3CL1)
Assay: competition; vs radiolabeled FKN-S2
Settings: tags: C-terminal polyhistidine; chemokine domain + mucin-like stalk; R&D Systems 365-FR-025
Remark: another data set of the same source
Protocol: (§2) IC₅₀ Binding Assay. FKN-S2 aptamer was labeled on the 5′ end with a radioactive phosphorous (³²P) using a T4 kinase. Unlabeled aptamer amphiphile was serially diluted in binding buffer composed of PBS with BSA, Poly(dA:dT) and radio-labeled FKN-S2 (generally less than 0.05 nM; ≈20,000 count per minute per well) and unlabeled FKN-S2 (1 nM). This ensured each aptamer dilution contained an identical concentration of FKN-S2. Fractalkine (0.1 nM) or BSA was added to each dilution and the aptamer was allowed to bind for 1 hour at room temperature. Each solution was then filtered though a nitrocellulose membrane where the fractalkine:aptamer complex was captured and non-bound aptamer was removed by washing the membrane three times with PBS. The membrane was then exposed to a phosphor film overnight and imaged. The binding was quantified using imageJ and the data fit to a binding equation to determine the IC₅₀.
We hypothesized that the improvement in affinity of the 3′ 10T FKN-S2 amphiphile may be due either to a spacer effect, where the spacer increases the distance between the aptamer and the tail, or due to an improvement in the affinity of the aptamer itself. To investigate the effect of the 10T spacer on the aptamer affinity, we measured the IC₅₀ values of the FKN-S2 aptamer with different nucleotide spacers (Table 3).

Compared with GGGGTGGGTGGGGGGCACGTGTGGGGGCGGCCAGGGTGCTTTTTTTTTTT (ssDNA) [3' 10T FKN-S2 Aptamer], TTTTTTTTTTGGGGTGGGTGGGGGGCACGTGTGGGGGCGGCCAGGGTGCT (ssDNA) [5' 10T FKN-S2 Aptamer] is 2.4-fold higher in IC50: 3.6 nM for the first, 8.7 nM for the second.

Compared with B1, GGGGTGGGTGGGGGGCACGTGTGGGGGCGGCCAGGGTGCTT (ssDNA) [3' 1T FKN-S2 Aptamer] is 3.4-fold higher in IC50: 2.7 nM for the first, 9.2 nM for the second. The first is the more potent here.

For GGGGTGGGTGGGGGGCACGTGTGGGGGCGGCCAGGGTGCTTTTTT (ssDNA) [3' 5T FKN-S2 Aptamer], the IC50 was 3.4 nM.

Molecular target: T2, fractalkine (CX3CL1)
Assay: competition; vs radiolabeled FKN-S2, filter binding, PBS pH 7.4; Table 2 gives 8.6±0.3 nM (n=9)
Settings: tags: C-terminal polyhistidine; chemokine domain + mucin-like stalk; R&D Systems 365-FR-025; label: 5' 32P; parallel G-quartet and B-form features by CD

GGGGTGGGTGGGGGGCACGTGTGGGGGCGGCCAGGGTGCT (ssDNA) [FKN-S2] was tested, and the IC50 was 9.5 nM.

Molecular target: T2, fractalkine (CX3CL1)
Assay: competition; vs radiolabeled FKN-S2, 0.1 nM FKN, PBS
Settings: tags: C-terminal polyhistidine; chemokine domain + mucin-like stalk; R&D Systems 365-FR-025
Protocol: as §2
Effect of the Spacer on Binding Affinity. […] Radiolabeled FKN-S2 aptamer and unlabeled aptamer-amphiphile were incubated with fractalkine for 1 hour and the aptamer:fractalkine complex collected by filtration through a nitrocellulose membrane. The concentration at which 50% of the aptamer is displaced by the unlabeled competitor is the IC₅₀ value.

Compared with GGGGTGGGTGGGGGGCACGTGTGGGGGCGGCCAGGGTGCTTTTTTTTTTT (ssDNA, 3' C16 dialkyl tail) [3' 10T FKN-S2 Amphiphile], GGGGTGGGTGGGGGGCACGTGTGGGGGCGGCCAGGGTGCT (ssDNA, 3' C12 spacer + C16 dialkyl tail) [3' C12 FKN-S2 Amphiphile] is 3.5-fold higher in IC50: 21.8 nM for the first, 75.6 nM for the second.

GGGGTGGGTGGGGGGCACGTGTGGGGGCGGCCAGGGTGCT (ssDNA, 3' C6 amino-linked C16 dialkyl tail) [3' No Spacer FKN-S2 Amphiphile] and GGGGTGGGTGGGGGGCACGTGTGGGGGCGGCCAGGGTGCT (ssDNA, 3' PEG4 spacer + C16 dialkyl tail) [3' PEG4 FKN-S2 Amphiphile] are within 1.5-fold of each other in IC50: 65.7 nM for the first, 68.6 nM for the second.

Compared with GGGGTGGGTGGGGGGCACGTGTGGGGGCGGCCAGGGTGCT (ssDNA, 3' PEG8 spacer + C16 dialkyl tail) [3' PEG8 FKN-S2 Amphiphile], GGGGTGGGTGGGGGGCACGTGTGGGGGCGGCCAGGGTGCT (ssDNA, 3' C24 spacer + C16 dialkyl tail) [3' C24 FKN-S2 Amphiphile] is 1.5-fold higher in IC50: 47.5 nM for the first, 73.5 nM for the second. The first is the more potent here.

Compared with GGGGTGGGTGGGGGGCACGTGTGGGGGCGGCCAGGGTGCT (ssDNA, 5' C6 amino-linked C16 dialkyl tail) [5' No Spacer FKN-S2 Amphiphile], GGGGTGGGTGGGGGGCACGTGTGGGGGCGGCCAGGGTGCT (ssDNA, 3' PEG24 spacer + C16 dialkyl tail) [3' PEG24 FKN-S2 Amphiphile] is 1.6-fold lower in IC50: 81.6 nM for the first, 49.6 nM for the second. The second is the more potent here.

Compared with GGGGTGGGTGGGGGGCACGTGTGGGGGCGGCCAGGGTGCTAAAAAAAAAA (ssDNA, 3' C16 dialkyl tail) [3' 10A FKN-S2 Amphiphile], TTTTTTTTTTGGGGTGGGTGGGGGGCACGTGTGGGGGCGGCCAGGGTGCT (ssDNA, 5' C16 dialkyl tail) [5' 10T FKN-S2 Amphiphile] is 2.2-fold higher in IC50: 24.8 nM for the first, 55.1 nM for the second. The first is the more potent here.

Work on GGGGTGGGTGGGGGGCACGTGTGGGGGCGGCCAGGGTGCTTTTTT (ssDNA, 3' C16 dialkyl tail) [3' 5T FKN-S2 Amphiphile] yielded an IC50 of 37.6 nM.
